Assay results: article PMC3643605 (Nucleic Acids Research, 2013)
Like-named read-outs stand apart in the source and are kept apart here.

B1: 8mer dsDNA (dsDNA)
DNA 1: CTCGCGAG
DNA 2: CTCGCGAG
B2: N-terminal His10-tagged DMP12 (natural protein, N. meningitidis, UniProt Q9JXC6 1-118, looked up)
chain: MNEHNLLIFCLKDNVSISEYTEMIDWAYKNIQSETVVEITENQIIEYQNRGLWRLVSEITDNWLFGPSEGDWLIDKESILAVKEKLQNSDFSTEPLVKNIIHVLEYAIKNEKTVIFHF
B3: C-terminal His6-tagged Neisseria HU protein (natural protein, UniProt P64389 1-89, looked up)
chain: MNKSELIEAIAQEADISKAAAQKALDATTNAVTTALKQGDTVTLVGFGTFYVGERAERQGRNPKTGEPLTIAAAKTPKFRAGKALKDAL

How the values were obtained:
HU (C-His6) = target: T1, HU (C-His6) (Neisseria meningitidis, UniProt P64389 1-89); assay: ITC
T1 sequence: B3 chain

[1] = target: B3; assay: SEC
AUC = target: the molecule itself; assay: AUC
[2] = target: T2, DMP12 (Neisseria meningitidis conserved hypothetical protein NMB2123), tag-free (N. meningitidis, UniProt Q9JXC6 1-118); assay: ITC
T2 sequence (looked up): B2 chain

[3] = target: T2, DMP12 (Neisseria meningitidis conserved …); assay: ITC; remark: listed apart in the source
SEC = target: the molecule itself; assay: SEC

**Q.** How did the Kd (HU (C-His6)) turn out when B1 was run?
**A.** The Kd was 720 ± 60 nM.

**Q.** With B2 as the binder, how does the “stoichiometry N” value [1] read?
**A.** Its value is 1 DMP12 monomer per HU dimer.

**Q.** For B3, which “stoichiometry N” value (AUC) is on record?
**A.** The value was 2.

**Q.** What about the Kd [2] of the same binder?
**A.** Its Kd is 2810 ± 430 nM.

**Q.** What about the Kd [3] of the same binder?
**A.** The Kd was 2820 ± 430 nM.

**Q.** And the dH [3]?
**A.** The dH was -6.17 ± 0.55 kcal/mol.

**Q.** What about the “stoichiometry N” value [3] of the same binder?
**A.** Its value is 0.96 ± 0.01.

**Q.** What about the “stoichiometry N” value (SEC) of the same binder?
**A.** Its value is 2.
